# B1: TPR t1 (parent)
# chain: GACCAAUCUGCCCUCAGAGCUCGAGAACAUCUUCGGAUGCAGAGGAGGCAGGCUUCGGUGGCGCGAUAGCGCCAACGUCCUCAACCUCCAAUGCAUCCCACCACAUGAUGAUGCCUGAAGAGCCUUGGUUUUUUG
# Variants of: B1
# Assay: polymerase ribozyme fitness, log enrichment relative to wild type (log ratio); higher = more active; in vitro selection for triplet polymerase activity
# Outline: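 Genotype fitness is the logarithm of its enrichment divided by wild-type enrichment, using inverse-variance-weighted averages of replicates. That logarithm is base 2. Enrichment was measured by Illumina sequencing of input and output libraries from one triplicate in vitro selection round, with frozen incubation at −7 °C, on PCR-built, transcribed mutant libraries of each subunit of a heterodimeric triplet polymerase ribozyme, retaining genotypes with ≥10 input reads and ≥1 read per output.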
row,Variant,polymerase ribozyme fitness (log ratio)
1,GACCAAACUGCCCUCCGAGCUCGAGAACAUCUUCGGAUGCAGAGGAGGCAGGCUUCGGUGGCACGAUAGCGCCAACGUCCUCAACCUCCAAUGCAUCCCACCACAUGAUGAUGCCUGAAGUGCCUUGGUUUUUUG [U7A A16C G63A A121U],-0.146
2,GACCAAUCUGCCCUCAGAGCUCGAGAAGAUCUUCGGAUGCAGAGGAGGGAGACUUCGGUGGCGCGAUAGCGCCAACGUCCUCAACCUCCAAUGCAUCCCACCACAUGAUGAUGCCUGAAAAGCCUUGGUUUUUUG [C28G C49G G52A G120A],-4.24
3,GACCAAUCUGCCCUCAGAGCUCGAGAACAUCUUCAGAUGCAGAGGAGGCAGGCUUCGGUUGCGCGAUAGCGCCAACGUCCUCAACCUCCAAUGCAUCCCACCACAUGAUGAUGCCUGAAGUGCCUUGGUUUUUUG [G35A G60U A121U],-2.03
4,GACCAAUCUGCCCUCAGAGCUCGAGAACAUCUUCGGAUGCAGAGGAGUCAGGCUUCGGUGGCGCGAUAGCGCCAACGUCCUCAACCUCCAAUGCAUCCCACCACAUGAAGAUGCCUGAAGAGCCUUGGUUUUUUG [G48U U109A],-5.53
5,GACCAGUCUGUCCUCAGAGCUCGAGAACAUCUUCGGAUGCAGAGGAGGCAGGCUUCGGUGGCGCGAUAGCGCCAACGUCCUCAACCUCCAAUGCAUCACACCACAUGAUGAUGCCUGAAGAGCCUUGGUUUUUUG [A6G C11U C98A],-5.05
6,GACCAAUCUGUCCUCAGAGCUCGAGAACAUCUUCGGAUGCAGAGGAAGCAGGCUUCGGUGUCGCGAUAGCGCCAACGACCUCAACCUCCAAUGCAUCCCACCACAUGAUGAUGCCUGAAGAGCCUUGGUUUUUUG [C11U G47A G61U U78A],-0.709
7,GACCAAUCUUACGUCAGAACUCGAGAACAUCUUCGGAUGCAGAGGAGGCAGGCUUCUGUGGCGCGAUAGCGCCAACGUCCUCAACCUCCGUUGCAUCCCACCACAUGAUGAUGCCUGAAGAGCCUUGGUUUUUUG [G10U C11A C13G G19A G57U A90G A91U],-2.55
8,GACCAAUCUGCCCUCAGAGCUCGAGAACAUCUUCGGAUGCAGAGUCGGCAGGCCUCGGUGGCGCGAUAGCGCCAACGCCCUCAACCUCCAAUGCAUCCCACCACAUGAUGAUGCCUGAAGAGCCUUGGUUUUUUG [G45U A46C U54C U78C],-2
9,GACCAAUCUGCCCUCAGAGCUCGAGAACAUCUUCGGAUGCAGAGGAGGCAGGCUUCGGUGGCGCGAUAGCGCCAACGUCCUCAACCUCCAAUCCAUCCCACCACAUGAUGUUGCCUGAAGAGCCUUGGUUUUUUG [G93C A111U],-5.12
10,GUCCAAUCUGCACUCAGAACUCGAGAACAGCUUCGGAUGCAGAGGAGGCAGGCUUAGGUGGCGCGAUAGCGCCAACGUCCUCAACCUCCAAUGCAUCCCACCACAUGAUGAAGGCUGAAGAGCCUUGGUUUUUUG [A2U C12A G19A U30G C56A U112A C114G],-7.24
11,GACCAAUCUGCCCUCAGAGCUCGAGAACAUCUUCGGAUGCAGAGGAGGCAGGCUUCGGUGGCGCGAUAGCGCCAACGUCCUCAACCUCCAAUGCAUCCCACCACAUGAUUAUGCCUGAAGAGCCUUAGUUUUUUG [G110U G127A],-2.05
12,GACCAAUCUGCCCUCAGAGCUCGAGAACAUCUUCGGAUGCAGAGGAGGCAGGCUUCGGUGGCGCGAUAGCGUCAACGUCCUCUACCUCCGAUGCAUCCCACCACAUGAUGAUGGCUGAAGAGCCUUGGUUUUUUG [C72U A83U A90G C114G],-1.45
13,GACCAAUCUGCCCUCAGUGCUCGAGAACAUCUUCGGAUGCAGAGGAGGCAGGCUUCGGUGGCGCGAUAGCGCCAACGUCCUCAACCUCCAAUGCAUCCCACCACAUGAUGCUGCCUGAAGAGCCUUGGUUUUUUG [A18U A111C],-2.74
14,GACCAAUCUGCCCUCAGAACUCGAGAACAUCUUCGGAUGCAGAGGAGGCAGGCUUCGGUAGCGCGAUAGCGCCAACGUCCUCAACCUCCCAUGCAUCCCACCACAUGAUGAUGCCUGAAGAGCCUUGGUUUUUUG [G19A G60A A90C],-2.74
15,GACCAAGCUGCCCUCAGAGCUCGAGAACAUCUUCGGAUGCAGAGGAGGCAGGCUUCGGUGGCGUGAUAGCGCGAACGUCCUCAACCUCAAAUGCAUCCCACCAUAUGAUGAUGCCUGAUGAGCCUUGGUUUUUUG [U7G C64U C73G C89A C104U A119U],-6.4
16,GACCAAUCUGCCCUCAGAGGUCGAGAACAUCUUCGGAUGCAGAGGAGGCAGGUUUCGGUGGCGCGAUAGCGCCAACGUCCUCAACCUCCAAUGCAUCCCACCACAUGAUGAUUCCUGAAGAGCCUUGGUUUUUUG [C20G C53U G113U],-0.634
17,GACCAAUCUGACCUCAGAGCUCGAGAACAUCUUCGGAUGCAGAGGAGGCAGGCUUAGGUGGCGCGAUAGCGCCAACGUCCUCAACCUCUAAUGCAUCCCACCACAUGAUGAUGCCUGAAGAGCCUUGGUUUUUUG [C11A C56A C89U],-1.96
18,GACCAAUCUGCCCUCAGAGCUCGAGAACAUCUUCGGAUGCAGAGGAGGCAGACUUCGGUGGCGCGAUAGCGCCAACGUCCUCAAGCUCCAAUGCAUCCCACCACAUGAUGAUGCCUGAAGAGCAUUGGUUUUUUG [G52A C85G C124A],0.15
19,GACCAAUCUGCCCUCAGAGCUCGAGAAUAUCUUCGGAUGCAGAGGAGGCAGCCUUCGGUGACGCGAUAGCGCCAACGUCCUCAACCUCCAAUGCAUCCCACCACAAGAUGAAGCCUGAAGAGCCUUGGUUUUUUG [C28U G52C G61A U106A U112A],-1.95
20,GACCAAUCUGCCCUCAGAGCUCGAGAACAUCUUCGGAUGUAGAGGAGGCAGGCUUCGGUGGCGCGAUAGCGCCAACGUCCUCAACCUCCAAUGCAUCCCACCACAUGAUGAGGCCUGAAGAGCCUUGGUUUUUUG [C40U U112G],0.138
21,GACCAAUCUGCCCUCAGAGCUCGAGAACAUCUUCGGAUGCAGAGGAGGCAGGCUUCGGUGGCGCGAUAGCGGCAACGUCCUCAACCUCCAAUGCAUCCCAACACAAGAUGAUGCCUGAUGAGUCUUGGUUUUUUG [C72G C101A U106A A119U C123U],-4.15

row,Variant,polymerase ribozyme fitness (log ratio)
1,GACCAAUCUGCCCUCAGAGCUCGAGAACAUCUUCGCAUGCAGAGGAGGCAGGCUUCGGUGGCGCGAUAGCGCCAACGUCCUGAACCUCCAAUGCAUCCCACCACAUGAUGAUGCCUGAAGAGCCUCGGUUUUUUG [G36C C82G U126C],-2.57
2,GACCAAUCUGCCCUCAGAGCUCGAGAACAUCUUCGGAUGCAGAGGAGUCAGGCUUCGGUGGCGCGAUAGCGCCAACGUCCUCAACCUCCAAUGCAUCCCACCACAUGAUGAUGCCUGAAGAGUCUUGGUUUUUUG [G48U C123U],0.57
3,GACCAAUCUGCCCUCAGAGCUCGAGAACAUCUUCGGAUGCAGAGGAGGCAGGCUUCGGUGGCCCGAUAGCGCCAGCGUCCUCAAACUCCAAUGCUUCCCCCCACAUGAUGAUGCGUGAAGAGCCUCGGUUUUUUG [G63C A75G C85A A95U A100C C115G U126C],-5.24
4,GACCAAUGUGCCCUCAGAGCUCGAGAACUUCUUCGGAUGCAGAGGAGGCAGGCUUCGGUGGCGCGAUAGCGCAAACGUCCUCAACCUCCAAUGCAUCCCACCACAUGAUGAUGCCUGAAUAGCCUUGGUUUUUUG [C8G A29U C73A G120U],-0.106
5,GACCAAUCUGCCCUCUGAGAUCGAGAACAUCUUCGGAUGCAGAGGAGGCAGGCUUCGGUGGUGCGAUAGCGCCAACGUCCUCCACCUCCAAUGCAUCCCACCACAUGAUGAUGCCUGAAAAGCCUUGGUUUUUUG [A16U C20A C62U A83C G120A],-6.31
6,GACCAAUCUGCCCUCAGCGCUCGAGAACAUCUUCUGAUGCAGAGGAGGCAGGCUUCGGUGGCGCGAUAGCGCCAACGUCCUCAACCUCCAAUGCAUCCCACCUCAUGAUGAUGCUUGAAGAGCCUUGGUUUUUUG [A18C G35U A103U C115U],-4.68
7,GACCAAUCUGCCCUUAGAGCUCGAGAACAUCUUAGGAUGCAGAGGAGGCAGGCUUCGGUGGCGCGAUAGCGCCAACGUCCUCAACCUCCAAUGCAUCCCACCACAUGAUGAUGCCUGAAGAGUCUUGGUUUUUUG [C15U C34A C123U],-3.01
8,GACCAAUCUGCCCUCAGAGCUCGAGAACAUCUUCGGAUGCAGAGGAGGCAGGCUUCGGUAGCGCGAUAGCGCCAACGUCCUCAACCACCAAUGCAUCCCACCACAUGAUGAUGCCUGAAGAGCCUUGGUUUUUUG [G60A U87A],-0.0639
9,GACCAAUAUGCCCUCAGAGCUCGAGAACAUCUUCGGAUGCAGAGGAGGCAGGCUUCGGGGGCGCGAUAGCGGCAACGUCCUCAACCUCCAAUGCAUCCCACCACAUGAUGAUGCCUGAAGAGCCUUGGUUUUGUG [C8A U59G C72G U133G],-3.35
10,GACCAAUCUGCCCUCAGAGCUCGAGAACAUCUUCGGAUGCCGAGGAGGCAGGCUUCGGUGGCGCGAUAGCGCCAACGUCCUCAACAUCCAAUGCAUCCCACCACAAGAUGAUGCCUGAAGAGCCUUGGUUUUUUG [A41C C86A U106A],-1.11
11,GACCAAUCUGCCCUCAGAGCUCGAGAACAUCUUCGGAUGCAGAGGAGGCAGGCUUCGGUGGCGCGAUAGCGCCAACGUCAUCAACCUCCAAUGCAUCCCACCACAUGAUGAUACCUGAAGAGCCUUGGUUUUUUG [C80A G113A],-3.03
12,GACCAAUCUGUCCUCAGAGCUCGAGAACAUCUUCGGAUGCAGAGGAGGCAGGCUUCGGUGGCGCGAUAGCGCCAACGUCCUCAACCUCCAAUGCAUUCCACCACAUGAUGAUACCUGAAGAGCCUUGGUUUUUUG [C11U C97U G113A],-1.74
13,GACCAAUUUGCCGUCAGAGCUCGAGCACAUCUUCGGAUGCAGAGGAGGCAGGCUUCGGUGGCGCGAUAGCGCCCACGUCCUCAACCUCCAAUGCAUCCCACCACAUGAUGAUGCCUGAAGAGCCUUGGUUUUUUG [C8U C13G A26C A74C],-6.04
14,GACCAAUCUGCCCUCAGAGCUCGAGAACAUCUUCGGAUGGAGAGGAGGCAGGCUUCGGUGGCGCGAUAGCGCCAACGUCCUCAACCUCCAAUGCAUCCCACCACAUGAUGAUGUCUGAAGAGCCUUGGUUUUUUG [C40G C114U],-2.54
15,GACCAAUCUGCCCUUAGAGCUCGAGAACAUCUUCGGAUGCAGGGGAGGCAGGCUUCUGUGGCGCGAUAGCGCCAACGUCCUCAAACUCCAAUUCAUCCCACCACAUGAUGAUGCCUGAACAGCCUUGGUUUUUUG [C15U A43G G57U C85A G93U G120C],-4.37
16,GACCAAUCUGCCCUCAGAGCUCGAGAACAUCUUCGGAUGCAGAGGAGGUAGGCUUCGGUGGCACGAUAGCGCCAACGUCCUCAACCUCCAAGGCAUCCCACCACAUGAUGAUGCCUGAAGGGCCUUGGUUUUUUG [C49U G63A U92G A121G],-3.84
17,GACCAAUCUGCCCUCAGAGCUCGAGAACAUCUUCGUAUGCAGAGGAGGCAGGCUUGGGUGGCGCGAUAGCGCCAACGUCCUUAACCUCCAAUGCAUCCCACCACAUGAUGAUACCUGAAGAGCCUUGGUUUUUUG [G36U C56G C82U G113A],-2.31
18,GACGAAUGUGCCCUCAGAGCUCGAGAACAUCUUCGGAUGCAGAAGAGGCAGGCUUCGGUGGCGCGAUAGCGCCAACGUCCUCAACCUCCAAUGCAUCCCACCACAUGAUGAUGCCUGAAGAGCCUUGGUUGUUUG [C4G C8G G44A U131G],-3.14
19,GACCAAUCUGCCCUCAGAGCUCGAGAACAUCUUCGGAUGCACAGGAGGCAGGCUUCGGUGGCGCGGUAGCGCCAACGUCCUCAACCUCGAAUGCAUCCCACCACAUGAUGAUGCCUGAAGAGCCUUGGUUUUUUG [G42C A66G C89G],-4.07
20,GACCAAUAUGCCCUCAGAGCUCGAGAACAUCUUCGGAUGCAGAGGAGGAAGGCUUCGGUGGCGCGAUAGCGCCAACGUCCUCAACCUCCAAUGCAUCCCACCACAUGAUGAUGCCUGAAGAGCCUUGGUUUUUUG [C8A C49A],0.247
21,GACCAAUCUGCCAUCAGAGCUCGAGAACAUCUUCGGAUGCAGAGGAGGCAGGCUUCGGUGGCGCGAUAGCGCCAAUGUCCUAAACCUCCAAUGCAUCCCACCUCAUGAUCAUGACUCAAGAGUCUUGGUUUUUUG [C13A C76U C82A A103U G110C C114A G117C C123U],-7

# From the RNAGym collection of RNA variant scans (doi:10.1073/pnas.2313332121)
